pKd: −log10 of the molar value. Values joined by “and” are separate entries in the source; they are usually repeats but may differ in a detail not shown here. Equal entries are not always repeated.
How the values were obtained:
PD-L1 in hPD-L1 tumors = biological target: T1, PD-L1 in hPD-L1 tumors (Homo sapiens, UniProt Q9NZQ7); experiment: Tumor PD-L1 engagement by AtzMab measured with [64Cu]WL12, hPD-L1/CHO tumors; format: in vivo, mouse; conditions: AtzMab 20 mg/kg 24 h prior to tracer
T1 construct: expressed in transfected cells; grown as tumours in NSG mice for the in vivo units
T1 sequence (Q9NZQ7 19-290): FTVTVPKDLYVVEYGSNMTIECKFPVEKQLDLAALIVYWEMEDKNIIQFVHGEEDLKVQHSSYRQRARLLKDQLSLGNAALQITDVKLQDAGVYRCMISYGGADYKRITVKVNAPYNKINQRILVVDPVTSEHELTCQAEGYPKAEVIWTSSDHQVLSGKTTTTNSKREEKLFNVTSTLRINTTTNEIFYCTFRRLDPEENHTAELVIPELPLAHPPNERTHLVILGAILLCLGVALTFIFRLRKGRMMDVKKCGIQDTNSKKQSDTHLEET
Source text: 2.1.3.3 PD-L1 therapeutic antibody accumulation in the tumors by PD-L1 PET: While evaluating the specificity of WL12 for PD-L1, it was discovered that WL12 competes with AtzMab to the same binding site on PD-L1. This provides a novel and previously unanticipated means to evaluate AtzMab therapy at tumor sites, where it is needed, using PD-L1-directed PET. Improved understanding of the distribution of PD-L1 antibodies in tumors may impact clinical antibody dosing and therapeutic monitoring. Therefore, the ability of [^64Cu]WL12-PET to assess AtzMab binding to PD-L1 within tumors was tested. Accumulation of radioactivity in hPD-L1 tumors was reduced by 80% in mice injected with AtzMab (20 mg/kg) as quantified by [^64Cu]WL12-PET and biodistribution studies (FIG. 21A, FIG. 21B, and FIG. 21C). […] The applicability of this approach was extended to cancer cell lines with native increase in PD-L1 expression.
To assess the effect of a single dose of AtzMab on targeting different PD-L1 levels in the tumors, PET and biodistribution studies were performed in tumors derived from the CHO-hPDL1 cell line, which has four- to ten-fold higher PD-L1 expression than NSCLC cells (FIG. 36). […] Those observations were confirmed by strong and week immunoreactivity observed in hPD-L1 and CHO tumors, respectively (FIG. 35I).

PD-L1 in MDAMB231 tumors [1] = biological target: T2, PD-L1 in MDAMB231 tumors (Homo sapiens, UniProt Q9NZQ7); experiment: Tumor PD-L1 engagement by PD-L1 mAbs measured with [64Cu]WL12, MDAMB231 xenografts; format: in vivo
T2 construct: MDAMB231 breast cancer cells, which naturally express PD-L1; endogenous in cells; host or cells: MDAMB231 (ATCC); as xenografts in NSG mice for the in vivo units
T2 sequence (Q9NZQ7 19-290): as above
Description: To evaluate the effect of dose on tumor PD-L1 occupancy at the tumor, mice bearing MDAMB231 tumors were injected with escalating doses of AtzMab from 0.009 to 24 mg/kg body weight.

[2] = Stroh, et al., 2017; cited from earlier work
[3] = biological target: T3, PD-L1 in HCC827, H226, hPD-L1 and MDAMB231 cells (Homo sapiens, UniProt Q9NZQ7); experiment: [64Cu]WL12 binding to PD-L1-positive cells in the presence of 60 nM mAbs; format: cell-based; conditions: 60 nM mAb vs PBS control
T3 construct: Each of which naturally expresses PD-L1; endogenous in cells; host or cells: HCC827, H226, MDAMB231 (endogenous) and CHO-hPD-L1 (stably transfected)
T3 sequence (Q9NZQ7 19-290): as above
Description: Non-interacting residues are shown in gray. […] Mean fluorescence intensities were determined by flow cytometry.
HCC827 and H226 non-small cell lung cancer (NSCLC) cells also were tested.

[4] = biological target: T4, PD-L1 in A549-iPDL1 cells (Homo sapiens, UniProt Q9NZQ7); experiment: Binding studies in doxycycline-inducible A549-iPDL1 cells; format: cell-based; conditions: 60 nM mAb
T4 construct: expressed in transfected cells; host or cells: A549 NSCLC cells, lentiviral pINDUCER20, G418-selected, doxycycline-induced
T4 sequence (Q9NZQ7 19-290): as above
Source text: To do so, an A549 NSCLC cell line with doxycycline-inducible PD-L1 expression (A549-iPD-L1) was generated. A549 is a Kras G12S lung adenocarcinoma cell line that expresses low PD-L1 at baseline.

PD-L1 in MDAMB231 tumors [5] = biological target: T2, PD-L1 in MDAMB231 tumors; experiment: Tumor PD-L1 engagement by PD-L1 mAbs measured with [64Cu]WL12, MDAMB231 xenografts; format: in vivo; conditions: AtzMab 20 mg/kg, AveMab 10 mg/kg, DurMab 10 mg/kg, 24 h prior to tracer
mouse PD-L1 = mouse PD-L1 (Mus musculus, UniProt Q9EP73); conditions: read-out: dissociation constant (Kd), mouse PD-L1; cited from earlier work
mouse PD-L1, sequence (Q9EP73 19-290): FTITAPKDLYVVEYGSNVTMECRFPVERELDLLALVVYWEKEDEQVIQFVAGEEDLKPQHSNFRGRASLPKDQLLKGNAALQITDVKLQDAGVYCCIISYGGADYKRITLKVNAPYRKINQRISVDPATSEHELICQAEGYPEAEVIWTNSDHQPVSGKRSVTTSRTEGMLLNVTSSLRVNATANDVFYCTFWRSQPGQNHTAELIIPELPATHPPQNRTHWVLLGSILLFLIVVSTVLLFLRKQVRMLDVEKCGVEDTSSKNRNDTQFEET

PD-L1 in MDAMB231 tumors [6] = biological target: T2, PD-L1 in MDAMB231 tumors; experiment: Effect of AtzMab dose on tumor PD-L1 occupancy, inhibitory sigmoidal Emax model of [64Cu]WL12 % ID/g; format: in vivo
Description: To evaluate the effect of dose on tumor PD-L1 occupancy at the tumor, mice bearing MDAMB231 tumors were injected with escalating doses of AtzMab from 0.009 to 24 mg/kg body weight. […] At the 0.6 and 3.2 mg/kg dose, there was a proportionate decrease in signal intensity in the tumors indicating—for the 3.2 mg/kg dose—a near 100% target engagement at the tumor by the antibody.
The accumulated radioactivity (% ID/g) in the tumors was then used to fit an inhibitory sigmoidal E. model.

[7] = biological target: T5, PD-L1 in HCC827 xenografts (Homo sapiens, UniProt Q9NZQ7); experiment: Tumor PD-L1 engagement by AtzMab measured with [64Cu]WL12, HCC827 xenografts; format: in vivo; conditions: AtzMab 20 mg/kg for 24 h, vs saline controls
T5 construct: Each of which naturally expresses PD-L1; endogenous in cells; host or cells: HCC827 and H226 NSCLC cells; as xenografts in NOD scid gamma mice for the in vivo units
T5 sequence (Q9NZQ7 19-290): as the sequence (Q9NZQ7 19-290) above
Source text: 3.3.2 Quantifying Tumor PD-L1 engagement by AtzMab. To evaluate PD-L1 engagement by the therapeutic mAbs at the tumor non-invasively in vivo, NSCLC xenograft models were studied. Those models were selected because nearly 50% of NSCLCs are PD-L1-positive and PD-L1 IHC is used as a predictive biomarker in patients with NSCLC undergoing immune checkpoint therapy (Mansfield, et al., 2016). […] There is a clear reduction in the accumulation of radioactivity in tumors of AtzMab-treated mice, indicating reduced levels of available PD-L1 sites, compared to treated controls (FIG. 35A and FIG. 35B). […] PD-L1 expression levels were confirmed by PD-L1 IHC of the xenografts (FIG. 35C and FIG. 35F).

PD-L1 in hPD-L1 cells = biological target: T6, PD-L1 in hPD-L1 cells (Homo sapiens, UniProt Q9NZQ7); experiment: In vitro binding of [64Cu]WL12 to hPD-L1 and CHO cells; format: cell-based; conditions: compared with WL12
T6 construct: expressed in transfected cells; grown as tumours in NSG mice for the in vivo units
T6 sequence (Q9NZQ7 19-290): as above
Description: 1.4.9. […] After incubation, cells were washed three times with cold PBS prior to counting on an automated gamma counter (1282 Compugamma CS, Pharmacia/LKBNuclear, Inc., Gaithersburg, Md.). […] Mean fluorescence intensity values were correlated with % incubated dose (% ID) uptake. All the cell uptake studies were performed in triplicate for each cell line and repeated three times.

AtzMab: therapeutic PD-L1 antibody Atezolizumab
reduction of [64Cu]WL12 accumulation in hPD-L1 tumors (PD-L1 in hPD-L1 tumors): 80% and 77% | [64Cu]WL12 uptake compared to untreated controls, PET (PD-L1 in MDAMB231 tumors [1]; AtzMab 0.06 mg/kg): no difference | [64Cu]WL12 tumor uptake at 120 h compared to 24 h (PD-L1 in MDAMB231 tumors [1]; AtzMab 0.6 mg/kg): significant increase | target engagement at the tumor (PD-L1 in MDAMB231 tumors [1]; AtzMab 3.2 mg/kg): ~100% | [64Cu]WL12 tumor uptake at 120 h compared to 24 h (PD-L1 in MDAMB231 tumors [1]; AtzMab 10 or 20 mg/kg): no significant temporal difference | PD-L1 occupancy at 24 and 120 h (PD-L1 in MDAMB231 tumors [1]; atezolizumab 1 mg/Kg): increased accumulation of [^64Cu]WL12 can be seen at 120 h but not at 24 h | PD-L1 occupancy at 24 and 120 h (PD-L1 in MDAMB231 tumors [1]; atezolizumab 10 mg/Kg): complete blockade of PD-L1 | less uptake of [64Cu]WL12 in tumors vs saline controls (PD-L1 in MDAMB231 tumors [1]; mAb 24 h prior, 120 min after tracer injection, ex vivo): approximately 60% | linearity of pharmacokinetics [2]: non-linear PK below 0.6-1 mg/kg and linear PK above 1 mg/kg dose | [64Cu]WL12 binding to PD-L1-positive cells [3]: inhibited | decrease of [64Cu]WL12 binding to doxycycline-treated A549-iPDL1 cells [4]: 65% | [64Cu]WL12 uptake in MDAMB231 xenografts (PD-L1 in MDAMB231 tumors [5]): significantly reduced | pKd (mouse PD-L1): 9.89 | ID90 (PD-L1 in MDAMB231 tumors [6]; 90% of Imax): 0.87 mg/kg | ID96 (PD-L1 in MDAMB231 tumors [6]; 96% of Imax): 1.19 mg/kg | ID50, dose for 50% of the maximum PD-L1 engagement in the tumor (PD-L1 in MDAMB231 tumors [6]; MDAMB231 tumors, 24 h after dose): 0.43 mg/kg and 0.43 (10%) mg/kg | expected average plasma concentration (PD-L1 in MDAMB231 tumors [6]; at ID50, assuming Vss 50 mL/kg): 59 nM and 8.6 mcg/mL | expected average plasma concentration (PD-L1 in MDAMB231 tumors [6]; at ID90, assuming Vss 50 mL/kg): 120 nM and 17.4 mcg/mL | expected average plasma concentration (PD-L1 in MDAMB231 tumors [6]; at ID96, assuming Vss 50 mL/kg): 164 nM and 23.8 mcg/mL | Imax (PD-L1 in MDAMB231 tumors [6]; maximum fractional decrease in free PD-L1 ligands, mean (% RSE)): 0.57 (3%) | Hill coefficient (PD-L1 in MDAMB231 tumors [6]; mean (% RSE)): 3.12 (19%) | Residual error (PD-L1 in MDAMB231 tumors [6]; mean (% RSE)): 0.44 (14%) % ID/g | Baseline free PD-L1 ligands (PD-L1 in MDAMB231 tumors [6]; mean parameter value (% relative standard error)): 5.91 (1%) % ID/g | [64Cu]WL12 accumulation in tumors vs antibody dose (PD-L1 in MDAMB231 tumors [6]; various doses, 24 h prior, biodistribution 2 h after tracer): reduced with increasing antibody dose | reduction in [64Cu]WL12 % ID/g, HCC827 xenografts [7]: 47% | potency at inhibiting [64Cu]WL12 binding (PD-L1 in hPD-L1 cells): more potent than WL12

From patent US11607466B2, “Tumor and immune cell imaging based on PD-L1 expression” (The Johns Hopkins University, priority 2016, dated 2023)
